Experimental data taken from patent publication US20230192897A1 (NUMAB THERAPEUTICS, published 2023).

Columns and labels:
[1] = molecular target: T1, CD137 on Jurkat NFkB reporter cells (human, UniProt Q07011 24-255); assay: cell-based or functional assay
[2] = molecular target: human PDL1 on cells (human, UniProt Q9NZQ7 19-290); assay: cell-based or functional assay
[3] = molecular target: T2, biotinylated human PDL1 (human, UniProt Q9NZQ7 19-238, limits assumed, biotinylated); assay: competition ELISA PD-1/PDL1
T2 construct: also called biotinylated PDL1
Procedure: (§1) Plates were blocked for 1 hour at room temperature by adding 300 μl of PBS with i%BSA and 0.2% tween (dilution buffer) to each well. Inhibitors were serially diluted in 3-fold steps to final concentrations ranging from 300 to 0.005 ng/ml in dilution buffer containing 1 ng/ml biotinylated human PDL1. The mixtures were pre-incubated for 1 hour at room temperature under gentle agitation on a rotating mixer (21 rpm) and added to the microplates after 3 wash cycles with 450 μl wash buffer per well. Plates were incubated for 1.5 hours at room temperature under gentle agitation, then 10 ng/ml streptavidin-polyHRP40 was added to each microplate well after three washes with 450 μl of wash buffer per well. After 1 h incubation at RT, plates were washed three times with 450 μl wash buffer and TMB substrate solution was added. The enzymatic reaction was stopped after 6 minutes by addition of 1 M HCl and absorbance was measured at 450 nm using 690 nm as a reference wavelength. For calculation of IC₅₀ values, a four-parameter logistic (4PL) curve fit was performed in Graph Pad Prism using reference subtracted values.

[4] = molecular target: T3, Fc tagged human PDL1 (human, UniProt Q9NZQ7 19-239); assay: SPR
T3 construct: Bought (Sino Biological, cat. 10084-H02H); captured on the SPR chip; also called PDL1-Fc chimeric protein
Procedure: (§2) Affinity to PDL1 of the different species was determined by SPR measurements using a Biacore T200 device (GE Healthcare). An antibody specific for the Fc region of human IgGs was immobilized on a sensor chip (CM5 sensor chip, GE Healthcare) by amine-coupling. For all formats, with the exception of the Fc containing Morrison formats, PDL1-Fc chimeric protein from different species were captured by the immobilized antibody.
(§3) Three-fold serial dilutions of the molecules specific for PDL1 (0.12-90 nM) were injected into the flow cells for three minutes and dissociation was monitored for 10 minutes. After each injection cycle, surfaces were regenerated with one injection of a 3 M MgCl₂ solution. The apparent dissociation (kd) and association (kₐ) rate constants and the apparent dissociation equilibrium constant (KD) were calculated using one-to-one Langmuir binding model. Affinity to CD137 of the different species was determined using the identical setup as for PDL1 with the exception that CD137-Fc chimeric protein from different species were captured by the immobilized antibody.

[5] = molecular target: T4, Fc tagged human CD137 (human, UniProt Q07011 24-186); assay: SPR
T4 construct: also called CD137-Fc chimeric protein
Procedure: as §2, §3

[6] = molecular target: T2, biotinylated human PDL1; assay: competition ELISA B7.1/PDL1
Procedure: as §1, with “1% BSA” for “i%BSA”, “Inhibitors were serially diluted in 3-fold steps to final concentrations ranging from 300 to 0.005 ng/ml in dilution buffer containing 1 ng/ml biotinylated human PDL1.” left out

[7] = molecular target: T1, CD137 on Jurkat NFkB reporter cells; assay: cell-based or functional assay; remark: listed apart in the source

Row | Area under the curve (calculated using PRO885 normalized data), first line (6 h by the order of the upper part) [1] | Area under the curve (calculated using PRO885 normalized data), second line (24 h by the order of the upper part) [1] | EC50 [ng/ml], NF-kB reporter, HCC827 + IFNg, +HSA, 6 h [1] | IC10/EC90 ratio, first line (6 h by the order of the upper part) [1] | IC10/EC90 ratio, second line (24 h by the order of the upper part) [1] | Maximum NF-kB activation (rel. to PRO1186) [%], first line (6 h by the order of the upper part) [1] | Maximum NF-kB activation (rel. to PRO1186) [%], second line (24 h by the order of the upper part) [1] | rel. Area under the curve (AUCsample/AUCPRO1186), first line (6 h by the order of the upper part) [1] | rel. Area under the curve (AUCsample/AUCPRO1186), second line (24 h by the order of the upper part) [1] | rel. EC50 (EC50, PRO1186/EC50, sample), NF-kB reporter, 6 h [1] | rel. EC50 (EC50, PRO1186/EC50, sample), NF-kB reporter, 24 h [1] | rel. IC10/EC90 (ratio of sample/ratio of PRO1186), first line (6 h by the order of the upper part) [1] | rel. IC10/EC90 (ratio of sample/ratio of PRO1186), second line (24 h by the order of the upper part) [1] | IC50 (ng/ml), NF-AT potency assay, +HSA [2] | rel. IC50 (avelumab/test), +HSA [2] | IC50 [3] | rel. IC50 (IC50 avelumab/IC50 test) [3] | koff [4] | Kd [5] | koff [5] | Binder | other results
1 | 83.2 | 119 | 21 ng/mL | 5.03 | 16.1 | 55.3% | 68.6% | 0.4 fold | 0.54 fold | 0.68 fold | 1.02 fold | 0.3 fold | 1.74 fold | 9.83 ng/mL | 3.73 fold | 2.75 ng/mL | 0.51 fold | 4.5e-05 s⁻¹ | 1.7 nM | 0.00075 s⁻¹ | PRO1431 (other, trispecific scDb-scFv; also called 38-02-A04 sc13 scDb-i/33-03-G02 sc18 scDb-o/19-01-H04 sc03 scFv) DIQMTQSPSSLSASVGDRVTITCQASQSINDYLAWYQQKPGKAPKLLIYKASTLASGVPSRFSGSGSGTDFTLTISSLQPEDFATYYCQQGYIITDIDNVFGTGTKVTVLGGGGGSEVQLVESGGGLVQPGGSLRLSCAASGFSFSNSYWICWVRQAPGKCLEWIGCTFVGSSDSTYYANWAKGRFTISRDNSKNTVYLQMNSLRAEDTAVYYCARHPSDAVYGYANNLWGQGTLVTVSSGGGGSGGGGSGGGGSGGGGSIQMTQSPSSLSASVGDRVTITCQASQSINNVLAWYQQKPGKAPKLLIYRASTLASGVPSRFSGSGSGTDFTLTISSLQPEDFATYYCQSSYGNYGDFGCGTKVTVLGGGGGSQVQLQESGPGLVKPSETLSLTCKASGFSFSSGYDMCWVRQPPGKGLEWIACVVAGSVDITYYASWAKGRVTISKDSSKNQVSLKLSSVTAADTAVYYCARKDAYSDAFNLWGQGTLVTVSSGGGGSGGGGSIQMTQSPSSLSASVGDRVTITCQSSESVYSNNQLSWYQQKPGQPPKLLIYDASDLASGVPSRFSGSGSGTDFTLTISSLQPEDFATYYCAGGFSSSSDTAFGGGTKLTVLGGGGGSGGGGSGGGGSGGGGSEVQLVESGGGLVQPGGSLRLSCAASGFSLSSNAMGWVRQAPGKGLEYIGIISVGGFTYYASWAKGRFTISRDNSKNTVYLQMNSLRAEDTATYFCARDRHGGDSSGAFYLWGQGTLVTVSS | kon [5]: 450000 M⁻¹ s⁻¹; IC50 [6]: 3.31 ng/mL; rel. IC50 (IC50 avelumab/IC50 test) [6]: 0.84 fold; IC50 (ng/ml) (EC50 in Table 16C), NFkB reporter, HCC827 + IFNg, 24 h, +HSA [7]: 18.4 ng/mL; rel. IC50 (PRO1186/test), 24 h [7]: 1.02 fold
2 | 52.3 | 188 | 2.4 ng/mL | 53.9 | 15.7 | 36.2% | 67.4% | 0.31 fold | 0.73 fold | 2.3 fold | 3.55 fold | 1.01 fold | 0.12 fold | 35.2 ng/mL | 1.11 fold | 4.14 ng/mL | 0.56 fold | 2.9e-05 s⁻¹ | 2 nM | 0.0006 s⁻¹ | PRO1473 (other, trispecific scDb-scFv; also called 38-02-A04 sc13 scDb-i/33-03-G02 sc03 scDb-o/19-01-H04 sc03 scFv) DFQLTQSPSSLSASVGDRVTITCQASQSINDYLAWYQQKPGKSPKLLIYKASTLASGVPSRFSGSGSGTDFTLTISSLQPEDFATYYCQQGYIITDIDNVFGTGTKVTVLGGGGGSEVQLVESGGGLVQPGGSLRLSCAASGFSFSNSYWICWVRQAPGKCLEWIGCTFVGSSDSTYYANWAKGRFTISRDNSKNTVYLQMNSLRAEDTAVYYCARHPSDAVYGYANNLWGQGTLVTVSSGGGGSGGGGSGGGGSGGGGSIQMTQSPSSLSASVGDRVTITCQASQSINNVLAWYQQKPGKAPKLLIYRASTLASGVPSRFSGSGSGTDFTLTISSLQPEDFATYYCQSSYGNYGDFGCGTKVTVLGGGGGSQSQLQESGPGLVKPSETLSLTCKASGFSFSSGYDMCWVRQPPGKGLEWIACVVAGSVDITYYASWAKGRVTISKDSSKNQVSLKLSSVTAADTAVYFCARKDAYSDAFNLWGQGTLVTVSSGGGGSGGGGSIQMTQSPSSLSASVGDRVTITCQSSESVYSNNQLSWYQQKPGQPPKLLIYDASDLASGVPSRFSGSGSGTDFTLTISSLQPEDFATYYCAGGFSSSSDTAFGGGTKLTVLGGGGGSGGGGSGGGGSGGGGSEVQLVESGGGLVQPGGSLRLSCAASGFSLSSNAMGWVRQAPGKGLEYIGIISVGGFTYYASWAKGRFTISRDNSKNTVYLQMNSLRAEDTATYFCARDRHGGDSSGAFYLWGQGTLVTVSS | Kd [4]: 0.0082 nM; kon [4]: 3.6e+06 M⁻¹ s⁻¹; kon [5]: 310000 M⁻¹ s⁻¹; IC50 [6]: 8.89 ng/mL; rel. IC50 (IC50 avelumab/IC50 test) [6]: 1.49 fold; IC50 (ng/ml) (EC50 in Table 16C), NFkB reporter, HCC827 + IFNg, 24 h, +HSA [7]: 0.91 ng/mL; rel. IC50 (PRO1186/test), 24 h [7]: 3.55 fold
3 | 93.5 | 135 | 5.97 ng/mL | 34.2 | 35.7 | 36.4% | 76.1% | 0.39 fold | 0.59 fold | 2.02 fold | 1.83 fold | 2.66 fold | 1.63 fold | 53.5 ng/mL | 0.66 fold | 2.84 ng/mL | 0.8 fold | 3.1e-05 s⁻¹ | 1.1 nM | 0.00037 s⁻¹ | PRO1476 (other, trispecific scDb-scFv; also called 33-03-G02 sc03 scDb-i/38-02-A04 sc13 scDb-o/19-01-H04 sc03 scFv) DIQMTQSPSSLSASVGDRVTITCQASQSINNVLAWYQQKPGKAPKLLIYRASTLASGVPSRFSGSGSGTDFTLTISSLQPEDFATYYCQSSYGNYGDFGCGTKVTVLGGGGGSQSQLQESGPGLVKPSETLSLTCKASGFSFSSGYDMCWVRQPPGKGLEWIACVVAGSVDITYYASWAKGRVTISKDSSKNQVSLKLSSVTAADTAVYFCARKDAYSDAFNLWGQGTLVTVSSGGGGSGGGGSGGGGSGGGGSFQLTQSPSSLSASVGDRVTITCQASQSINDYLAWYQQKPGKSPKLLIYKASTLASGVPSRFSGSGSGTDFTLTISSLQPEDFATYYCQQGYIITDIDNVFGTGTKVTVLGGGGGSEVQLVESGGGLVQPGGSLRLSCAASGFSFSNSYWICWVRQAPGKCLEWIGCTFVGSSDSTYYANWAKGRFTISRDNSKNTVYLQMNSLRAEDTAVYYCARHPSDAVYGYANNLWGQGTLVTVSSGGGGSGGGGSIQMTQSPSSLSASVGDRVTITCQSSESVYSNNQLSWYQQKPGQPPKLLIYDASDLASGVPSRFSGSGSGTDFTLTISSLQPEDFATYYCAGGFSSSSDTAFGGGTKLTVLGGGGGSGGGGSGGGGSGGGGSEVQLVESGGGLVQPGGSLRLSCAASGFSLSSNAMGWVRQAPGKGLEYIGIISVGGFTYYASWAKGRFTISRDNSKNTVYLQMNSLRAEDTATYFCARDRHGGDSSGAFYLWGQGTLVTVSS | Kd [4]: 0.009 nM; kon [5]: 350000 M⁻¹ s⁻¹; IC50 [6]: 9.49 ng/mL; rel. IC50 (IC50 avelumab/IC50 test) [6]: 1.1 fold; IC50 (ng/ml) (EC50 in Table 16C), NFkB reporter, HCC827 + IFNg, 24 h, +HSA [7]: 3.9 ng/mL; rel. IC50 (PRO1186/test), 24 h [7]: 1.83 fold
